This passage reports IC50 and EC50 results from patent publication US20250109187A1 (NOVAVAX, published 2025).

Experiment [1] concerns the target T1, FL.1.5.1 rS (SARS-CoV-2 variant FL.1.5.1, UniProt P0DTC2 14-1273).
Experiment [2] addresses T2, SARS-CoV-2 Omicron XBB.1.5 rS (SARS-CoV-2 variant XBB.1.5, UniProt P0DTC2 14-1273).
Experiment [3] has as its target T3, EG.5.1 rS (SARS-CoV-2 variant EG.5.1, UniProt P0DTC2 14-1273).
The target in experiment [4] is T4, XBB.1.16 rS (SARS-CoV-2 variant XBB.1.16, UniProt P0DTC2 14-1273).
The target in experiment [5] is T5, XBB.2.3 rS (SARS-CoV-2 variant XBB.2.3, UniProt P0DTC2 14-1273).
Experiment [6] deals with T6, XBB.1.16.6 rS (SARS-CoV-2 variant XBB.1.16.6, UniProt P0DTC2 14-1273).
In experiment [7] the target is T1, FL.1.5.1 rS. Kind of experiment: ELISA: rS coated, mAb titrated, anti-mouse HRP. For orientation: In an ELISA, binding on a coated surface is turned into a signal by an enzyme label.
Experiment [8] deals with T2, SARS-CoV-2 Omicron XBB.1.5 rS. Kind of experiment: ELISA: rS coated, mAb titrated, anti-mouse HRP.
In experiment [9] the target is T3, EG.5.1 rS. Kind of experiment: ELISA: rS coated, mAb titrated, anti-mouse HRP.
The target of experiment [10] is T4, XBB.1.16 rS. As to the kind of experiment: ELISA: rS coated, mAb titrated, anti-mouse HRP.
Experiment [11] has as its target T5, XBB.2.3 rS. As to the kind of experiment: ELISA: rS coated, mAb titrated, anti-mouse HRP.
In experiment [12] the target is T6, XBB.1.16.6 rS. Kind of experiment: ELISA: rS coated, mAb titrated, anti-mouse HRP.

B1: NVX.324.6 (antibody, V domains shown)
VH: EVQLQQSGPELGKPGTSMKISCKASGYSFTGYTMNWVKQSHGKNLEWIGLINPYNGGTSYNQKFKDKATLTVDKSSSTAYMELLSLTSEDSAVYYCVREHYYYDSGYGGYYAMDYWGQGTSVTVSS
VL: QIVLSQSPAILSASPGDKVTMTCRASASVNYMYWYQQKPGSSPKPWIYATSNLASGVPARFSGSGSGTSYSLTISRVEAEDAAIYYCQQWSSNPYTFGGGTKLEIK
notes: also called mAb NVX.324.6
The term IC50 denotes the concentration at which inhibition is half-maximal. A higher IC50 goes with a need for much substance. The term EC50 denotes the midpoint of the concentration-response curve. A higher EC50 goes with a less potent agent. As to B1, the IC50 (with FL.1.5.1 rS [1]; in experiment [2]; with EG.5.1 rS [3]; with XBB.1.16 rS [4]; with XBB.2.3 rS [5]; with XBB.1.16.6 rS [6]) was more than 3 µg/mL throughout. Besides, the EC50 in the experiment with FL.1.5.1 rS [7] was 0.014 µg/mL; in experiment [8], 0.03 µg/mL; with EG.5.1 rS [9], 0.018 µg/mL; in the experiment with XBB.1.16 rS [10], 0.027 µg/mL; with XBB.2.3 rS [11], 0.028 µg/mL; in the experiment with XBB.1.16.6 rS [12], 0.021 µg/mL.

B2: NVX.62.12 (antibody, V domains shown)
VH: QVQLQQSGAELVRPGVSVKISCKGSGYTFTDYAMHWVKQSHAKSLEWIGVISTYSGDAYYNQKFKGKATVTVDKSSSTAYMELARLTSEDSAIYFCARNWDDYYAMDYWGQGTSVTVSS
VL: QIILSQSPAILSASPGERVTMTCRATSSVSYMHWYRQKPGSSPQPWIYATSNLASGVPARFSGSGSGTSYSLTISRVEAEDAATYYCQQWSGNPWTFGGGTKLEIK
notes: also called mAb NVX.62.12
B2: the IC50 (with FL.1.5.1 rS [1]; in [2]; with EG.5.1 rS [3]; with XBB.1.16 rS [4]; with XBB.2.3 rS [5]; with XBB.1.16.6 rS [6]) was more than 3 µg/mL each time. Further, the EC50 was found to be 0.021 µg/mL in the experiment with FL.1.5.1 rS [7]; 0.056 µg/mL in [8]; 0.029 µg/mL with EG.5.1 rS [9]; 0.044 µg/mL with XBB.1.16 rS [10]; 0.067 µg/mL in the experiment with XBB.2.3 rS [11]; 0.063 µg/mL in the experiment with XBB.1.16.6 rS [12].
